In PMC13456277, “Direct interaction between RSV polymerase L and active Rab11a mediates viral ribonucleoprotein transport to assembly sites” (PLOS Pathogens, 2026):
Substitutions are numbered along the chain they refer to. Numbers in names are those of the source.

B1: GST-Rab11a(Q70L) CA (natural protein)
chain: MGTRDDEYDYLFKVVLIGDSGVGKSNLLSRFTRNEFNLESKSTIGVEFATRSIQVDGKTIKAQIWDTAGLERYRAITSAYYRGAVGALLVYDIAKHLTYENVERWLKELRDHADSNIVIMLVGNKSDLRHLRAVPTDEARAFAEKNGLSFIETSALDSTNVEAAFQTILTEIYRIVSQKQMSDRRENDMSPSNNVVPIHVPPTTENKPKVQCCQNI
B2: GST-Rab11a WT (natural protein, human, UniProt P62491 1-216, looked up)
chain: B1 chain with L70Q
notes: human Rab11a; pGEX 4T-3; Used with or without 1 mM GTP; also called GST-Rab11a wild-type; source: E. coli BL21, purified (Glutathione Sepharose 4B, SEC Superdex 200); not shown: GST, N-terminal, kept

Key:
[1] = biological target: RSV L-Twin-Strep-tag + P-his (human respiratory syncytial virus, UniProt P28887 1-2165; P03421 1-241); experiment: BLI
[2] = biological target: T1, RSV L-Twin-Strep-tag + P-his (human respiratory syncytial virus, UniProt P28887 1-2165; P03421 1-241); experiment: BLI; Octet RED 384, 25°C; L-Twin-Strep-tag + P-his loaded on Ni-NTA sensors; two-fold dilutions of GST-Rab11a (with 1 mM GTP) or GST-Rab11a CA from 50 nM to 3.2 µM; association 60 min to steady state, dissociation 5 min; apparent KD from steady-state responses, one-site model, double referenced; conditions: both partners purified
T1 construct: RSV large polymerase L, codon-optimized; RSV phosphoprotein P, codon-optimized; L as in m21; also called L-P^-his; L-P complexes; source: Sf9, baculovirus, purified (Strep-Trap XT, SEC Superose 6); not shown: Twin-Strep-tag, C-terminal, kept; His6, C-terminal, kept

| Binder | Kd [1] | Kd [2] |
| --- | --- | --- |
| B1 | 1200 nM | – |
| B2 | – | 300 nM |
